Sequences and labels used below:
B1: W2S4 peptide (human CD11a-based) (peptide)
peptide: Ac-YLSGLCYLFRQNLQGPML-NH2
B5: leukotoxin (LtxA) of Aggregatibacter actinomycetemcomitans (natural protein)
chain: MATTTLPNTKQQAAQFANSVADRAKENIDAAKEQLQKALDKLGKTGKKLTLYIPKNYKKGNGLTALIKAAQKLGIEVYHEGKDGPALTNGILNTGKKLLGLTERGLTLFAPELDKWIQGNKHLSNSVGSTGNLTKAIDKVQSVLGTLQAFLNTAFSGMDLDALIKARQNGKNVTDVQLAKASLNLINELIGTISSITNNVDTFSKQLNKLGEALGQVKHFGSFGDKLKNLPKLGNLGKGLGALSGVLSAISAALLLANKDADTATKAAAAAELTNKVLGNIGKAITQYLIAQRAAAGLSTTGPVAGLIASVVSLAISPLSFLGIAKQFDRARMLEEYSKRFKKFGYNGDSLLGQFYKNTGIADAAITTINTVLSAIAAGVGAASAGSLVGAPIGLLVSAITSLISGILDASKQAVFEHIANQLADKIKAWENKYGKNYFENGYDARHSAFLEDSLKLFNELREKYKTENILSITQQGWDQRIGELAGITRNGDRIQSGKAYVDYLKKGEELAKHSDKFTKQILDPIKGNIDLSGIKGSTTLTFLNPLLTAGKEERKTRQSGKYEFITELKVKGRTDWKVKGVPNSNGVYDFSNLIQHAVTRDNKVLEARLIANLGAKDDYVFVGSGSTIVNAGDGYDVVDYSKGRTGALTIDGRNATKAGQYKVERDLSGTQVLQETVSKQETKRGKVTDLLEYRNYKLDYYYTNKGFKAHDELNSVEEIIGSTLRDKFYGSKFNDVFHGHDGDDLIYGYDGDDRLYGDNGNDEIHGGQGNDKLYGGAGNDRLFGEYGNNYLDGGEGDDHLEGGNGSDILRGGSGNDKLFGNQGDDLLDGGEGDDQLAGGEGNDIYVYRKEYGHHTITEHSGDKDKLSLANINLKDVSFERNGNDLLLKTNNRTAVTFKGWFSKPNSSAGLDEYQRKLLEYAPEKDRARLKRQFELQRGKVDKSLNNKVEEIIGKDGERITSQDIDNLFDKSGNKKTISPQELAGLIKNKGKSSSLMSSSRSSSMLTQKSGLSNDISRIISATSGFGSSGKALSASPLQTNNNFNSYANSLATTA

Assay [1] addresses B5. The experiment in a line: SPR. (SPR reads the build-up and loss of mass on a sensor chip optically.)
Assay [2] concerns the target B1. The experiment in a line: SPR.

For the molecule B1, in assay [1], the Kd (usually the constant that tells how readily two partners part at equilibrium) is approximately 10 nM.

B2: W1S4 peptide (human CD11a-based) (peptide)
peptide: Ac-TGHCLP-NH2
B2 registered a Kd in assay [1] of approximately 10 nM.

B3: W2S1 peptide (human CD11a-based) (peptide)
peptide: Ac-VTLRGSNYTSKYLGMTLATDP-NH2
The molecule B3 yielded a Kd in assay [1] of approximately 10 nM.

B4: W2S3 peptide (human CD11a-based; identical in murine CD11a) (peptide)
peptide: Ac-LSRTCDQNT-NH2
For B4, in assay [1], the Kd is approximately 10 nM.

Take B5: the “KD relative to the KD of LtxA for the other peptides” value in assay [2] was approximately 2 fold.

B6: W2S2 peptide (human CD11a-based) (peptide)
peptide: Ac-TDGSILACDPG-NH2
Regarding B6, in assay [1], the Kd is approximately 10 nM.

Values taken from article PMC6050581 (ACS infectious diseases, 2018).
